Publication PMC9399289, “Extended DNA-binding interfaces beyond the canonical SAP domain contribute to the function of replication stress regulator SDE2 at DNA replication forks”

How the values were obtained:
[1] = biological target: T1, GST-SDE2-FLAG WT (human, UniProt Q6IQ49 1-451); experiment: fluorescence anisotropy; EMSA: 10 mM Tris-HCl pH 7.5, 50 mM NaCl, 0.5 mM DTT, 0.05 mM EDTA, 3% glycerol, 0.05 mg/ml BSA (or 50 mM Na/K PO4 pH 6.0, 50 mM NaCl, 5 mM DTT), on ice; anisotropy: 50 mM Na/K PO4 pH 6.0, 50 mM NaCl, 5 mM DTT, 1 uM DNA; pull-down: 10 mM Tris-HCl pH 7.5, 100 mM NaCl, 0.2 mM EDTA, 1 mM DTT, 10% glycerol, 0.01% NP-40, 10 ug/ml BSA, RT; NMR: 50 mM Na/K phosphate, 50 mM NaCl, 5 mM DTT, 10% D2O; conditions: protein: recombinant; tags: N-term GST, C-term FLAG; label: 5' 6-FAM
T1 sequence: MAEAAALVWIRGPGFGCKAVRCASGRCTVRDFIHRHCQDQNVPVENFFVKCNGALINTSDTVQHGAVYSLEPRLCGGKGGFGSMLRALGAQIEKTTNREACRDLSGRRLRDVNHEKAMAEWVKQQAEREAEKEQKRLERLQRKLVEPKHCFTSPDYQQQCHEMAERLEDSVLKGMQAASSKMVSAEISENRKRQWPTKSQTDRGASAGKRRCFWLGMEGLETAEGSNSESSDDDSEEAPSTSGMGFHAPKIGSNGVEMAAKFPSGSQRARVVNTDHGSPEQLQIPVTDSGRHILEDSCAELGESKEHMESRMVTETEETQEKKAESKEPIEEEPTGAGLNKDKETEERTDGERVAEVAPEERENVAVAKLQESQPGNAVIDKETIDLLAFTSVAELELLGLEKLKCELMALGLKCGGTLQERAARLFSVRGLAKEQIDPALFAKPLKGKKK

[2] = biological target: T2, GST-SDE2SAP (human, UniProt Q6IQ49 350-451); experiment: as above; conditions: protein: recombinant; tags: N-term GST; label: 5' 6-FAM
T2 sequence: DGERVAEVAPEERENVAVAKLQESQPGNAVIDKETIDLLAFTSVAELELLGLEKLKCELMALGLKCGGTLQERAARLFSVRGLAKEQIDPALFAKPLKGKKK

[3] = biological target: T3, GST-SDE2 CGTKK (human, UniProt Q6IQ49 1-451, C415A;G417S;T418V;K444A;K447A); experiment: EMSA; 50-200 nM protein, 20 nM DNA; EMSA: 10 mM Tris-HCl pH 7.5, 50 mM NaCl, 0.5 mM DTT, 0.05 mM EDTA, 3% glycerol, 0.05 mg/ml BSA (or 50 mM Na/K PO4 pH 6.0, 50 mM NaCl, 5 mM DTT), on ice; anisotropy: 50 mM Na/K PO4 pH 6.0, 50 mM NaCl, 5 mM DTT, 1 uM DNA; pull-down: 10 mM Tris-HCl pH 7.5, 100 mM NaCl, 0.2 mM EDTA, 1 mM DTT, 10% glycerol, 0.01% NP-40, 10 ug/ml BSA, RT; NMR: 50 mM Na/K phosphate, 50 mM NaCl, 5 mM DTT, …; conditions: protein: recombinant; tags: N-term GST; label: 5' 6-FAM
T3 sequence: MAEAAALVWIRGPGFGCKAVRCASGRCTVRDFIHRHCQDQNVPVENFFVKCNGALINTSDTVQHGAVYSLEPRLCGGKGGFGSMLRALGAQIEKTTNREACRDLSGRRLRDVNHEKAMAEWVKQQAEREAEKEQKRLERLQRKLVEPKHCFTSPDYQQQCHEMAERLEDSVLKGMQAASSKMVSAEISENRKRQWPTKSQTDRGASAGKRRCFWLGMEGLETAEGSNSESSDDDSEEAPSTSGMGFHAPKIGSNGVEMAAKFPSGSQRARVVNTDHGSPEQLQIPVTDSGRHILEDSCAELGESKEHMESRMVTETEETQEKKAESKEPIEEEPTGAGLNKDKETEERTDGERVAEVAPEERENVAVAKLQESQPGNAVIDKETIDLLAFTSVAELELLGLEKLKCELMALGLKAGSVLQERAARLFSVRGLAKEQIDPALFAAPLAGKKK

[4] = biological target: T4, GST-SDE2 ΔSAP+CTT (human, UniProt Q6IQ49 1-394, del395-451); experiment: EMSA; 50-200 nM protein; EMSA: 10 mM Tris-HCl pH 7.5, 50 mM NaCl, 0.5 mM DTT, 0.05 mM EDTA, 3% glycerol, 0.05 mg/ml BSA (or 50 mM Na/K PO4 pH 6.0, 50 mM NaCl, 5 mM DTT), on ice; anisotropy: 50 mM Na/K PO4 pH 6.0, 50 mM NaCl, 5 mM DTT, 1 uM DNA; pull-down: 10 mM Tris-HCl pH 7.5, 100 mM NaCl, 0.2 mM EDTA, 1 mM DTT, 10% glycerol, 0.01% NP-40, 10 ug/ml BSA, RT; NMR: 50 mM Na/K phosphate, 50 mM NaCl, 5 mM DTT, 10% D2O; conditions: protein: recombinant; tags: N-term GST; label: 5' 6-FAM
T4 sequence: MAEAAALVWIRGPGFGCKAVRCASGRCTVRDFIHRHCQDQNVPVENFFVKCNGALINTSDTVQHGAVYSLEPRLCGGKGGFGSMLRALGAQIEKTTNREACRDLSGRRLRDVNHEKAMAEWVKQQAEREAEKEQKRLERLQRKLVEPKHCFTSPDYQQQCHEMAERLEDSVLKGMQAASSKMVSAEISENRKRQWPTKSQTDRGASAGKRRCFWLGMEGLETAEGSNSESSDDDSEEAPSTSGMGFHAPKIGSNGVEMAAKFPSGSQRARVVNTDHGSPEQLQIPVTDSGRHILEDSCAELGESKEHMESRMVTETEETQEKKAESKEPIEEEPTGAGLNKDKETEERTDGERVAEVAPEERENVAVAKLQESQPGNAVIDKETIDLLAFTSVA

[5] = biological target: T5, GST-SDE2-FLAG ΔSAP (human, UniProt Q6IQ49 1-451, del395-427); experiment: EMSA; 200 nM protein, 50 nM DNA; EMSA: 10 mM Tris-HCl pH 7.5, 50 mM NaCl, 0.5 mM DTT, 0.05 mM EDTA, 3% glycerol, 0.05 mg/ml BSA (or 50 mM Na/K PO4 pH 6.0, 50 mM NaCl, 5 mM DTT), on ice; anisotropy: 50 mM Na/K PO4 pH 6.0, 50 mM NaCl, 5 mM DTT, 1 uM DNA; pull-down: 10 mM Tris-HCl pH 7.5, 100 mM NaCl, 0.2 mM EDTA, 1 mM DTT, 10% glycerol, 0.01% NP-40, 10 ug/ml BSA, RT; NMR: 50 mM Na/K phosphate, 50 mM NaCl, 5 mM DTT, …; conditions: protein: recombinant; tags: N-term GST, C-term FLAG; label: 5' 6-FAM
T5 sequence: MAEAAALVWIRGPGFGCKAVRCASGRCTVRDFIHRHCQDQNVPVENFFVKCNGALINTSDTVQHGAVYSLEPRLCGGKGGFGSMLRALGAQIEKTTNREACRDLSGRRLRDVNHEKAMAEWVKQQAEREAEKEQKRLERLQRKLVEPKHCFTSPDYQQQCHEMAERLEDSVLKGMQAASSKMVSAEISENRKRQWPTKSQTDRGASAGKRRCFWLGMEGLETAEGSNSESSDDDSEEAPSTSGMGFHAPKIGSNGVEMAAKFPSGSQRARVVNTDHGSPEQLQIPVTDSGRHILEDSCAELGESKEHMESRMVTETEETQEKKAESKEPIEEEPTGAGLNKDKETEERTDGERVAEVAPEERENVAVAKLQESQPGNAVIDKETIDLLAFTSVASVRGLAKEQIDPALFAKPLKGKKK

B1: 60-mer ssDNA (EMSA1) (ssDNA)
DNA: GACGCTGCCGAATTCTACCAGTGCCTTGCTAGGACATCTTTGCCCACCTGCAGGTTCACCC
Kd [1]: ~1100 nM
Kd [2]: 1770 ± 410 nM
binding result [3]: no binding
binding result [4]: no binding
binding result [5]: no binding
